# ± gives the standard deviation of the averaged measurements.
# System: ATP
# Experiment: switch fluorescence ratio, 500 uM ATP over buffer (Cy3 cluster intensity, sum of 5 cycles each) (fold (ratio)); higher = stronger signal-on switching upon ATP binding; sequences stand for … in TCGTCGGCAGCGTCAGATGTGTATAAGAGACAGTTTTTTTTTTTTTTTTTTTTTTTTT…TC
# Details: aptamer strand: ATP DNA aptamer (quencher-CACCTGGGGGAGTATTGCGGAGGAAGG + anchor), 100 nM annealed; ATP concentration: 500 uM
# Outline: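 The fluorescence ratio divides summed target-cycle Cy3 intensity by summed buffer-cycle Cy3 intensity for each cluster and is averaged per switch-domain sequence. Cy3-labelled switching-strand clusters on a modified Illumina MiSeq flow-cell were annealed to 100 nM quencher-labelled ATP aptamer, then imaged in selection buffer and again after 15 min with 500 uM ATP at 22 °C. Five such cycles were run, with NaOH stripping and re-annealing between them, and clusters outside 100-1000 RFU were excluded.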
# 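Further: ATP exposure 15 min at 22 °C before imaging.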
row,Sequence,switch fluorescence ratio
1,TTGGTATTTG,0.993 ± 0.018
2,TTGGTCTATC,0.998 ± 0.035
3,TTGGTGAATT,0.99 ± 0.019
4,TTGGTGAGGT,0.99 ± 0.041
5,TTGGTGCATG,1.01 ± 0.04
6,TTGGTGCGTT,0.992 ± 0.018
7,TTGGTGCTGT,1.01 ± 0.017
8,TTGGTTACTT,1.01 ± 0.011
9,TTGGTTATGG,1 ± 0.039
10,TTGGTTATTT,1 ± 0.045
11,TTGGTTCAGC,1.05 ± 0.028
12,TTGGTTCCGC,1.53 ± 0.48
13,TTGGTTCTCT,1.01 ± 0.011
14,TTGGTTCTGA,1.021 ± 0.0036
15,TTGGTTGGAA,1 ± 0.072
16,TTGGTTGTAG,1.01 ± 0.02
17,TTGGTTTACG,1.02 ± 0.03
18,TTGGTTTCGT,1.022 ± 0.0059
19,TTGGTTTGCC,0.982 ± 0.029
20,TTGGTTTTGT,0.995 ± 0.024
21,TTGGTTTTTA,0.98 ± 0.018
22,TTGTAAAATT,0.99 ± 0.027
23,TTGTAAACTT,1.03 ± 0.012
24,TTGTAACGGA,1.01 ± 0.039
25,TTGTACTTAC,1.24 ± 0.048
26,TTGTAGATGC,1.03 ± 0.071

row,Sequence,switch fluorescence ratio
1,TTGTAGCCGT,0.983 ± 0.029
2,TTGTAGGAAC,0.9978 ± 0.0037
3,TTGTAGGGAG,1 ± 0.027
4,TTGTAGTATC,1 ± 0.025
5,TTGTAGTTGG,0.986 ± 0.058
6,TTGTAGTTTT,1.01 ± 0.038
7,TTGTATAAGG,1 ± 0.015
8,TTGTATCCTG,0.9637 ± 0.0011
9,TTGTATGGG,0.984 ± 0.015
10,TTGTATTAGG,0.968 ± 0.05
11,TTGTCAGTTT,1.03 ± 0.079
12,TTGTCCGGGG,1.006 ± 0.0058
13,TTGTCCGTGC,1.14 ± 0.15
14,TTGTCCTGCG,0.965 ± 0.019
15,TTGTCCTGTG,1.02 ± 0.036
16,TTGTCGTCGC,0.989 ± 0.024
17,TTGTCTCTTT,0.9932 ± 0.0062
18,TTGTGAAAGA,1.01 ± 0.021
19,TTGTGAATGT,0.975 ± 0.016
20,TTGTGAGGGG,0.988 ± 0.022
21,TTGTGAGTAG,1 ± 0.028
22,TTGTGAGTGT,1.01 ± 0.034
23,TTGTGATACT,1.07 ± 0.044
24,TTGTGCCCGG,0.9727 ± 0.009
25,TTGTGCCGGT,0.988 ± 0.037
26,TTGTGCGTAG,0.991 ± 0.047

row,Sequence,switch fluorescence ratio
1,TTGTGCTGCC,1.05 ± 0.027
2,TTGTGGAAAT,1 ± 0.069
3,TTGTGGCAGG,1.01 ± 0.054
4,TTGTGGCTGT,1.01 ± 0.023
5,TTGTGGGGCC,1 ± 0.029
6,TTGTGGGGGG,0.989 ± 0.036
7,TTGTGGGTTA,0.96 ± 0.012
8,TTGTGGTCTT,0.9762 ± 0.0075
9,TTGTGGTGGG,1.03 ± 0.069
10,TTGTGGTTTG,0.992 ± 0.034
11,TTGTGTATGG,1.02 ± 0.052
12,TTGTGTCGGG,0.998 ± 0.02
13,TTGTGTGATT,1.02 ± 0.038
14,TTGTGTGGGC,1.04 ± 0.047
15,TTGTGTGTAA,0.995 ± 0.014
16,TTGTGTTAGT,0.958 ± 0.01
17,TTGTGTTTAT,0.965 ± 0.015
18,TTGTGTTTTT,0.995 ± 0.023
19,TTGTTAACAG,0.997 ± 0.018
20,TTGTTAATAT,1 ± 0.035
21,TTGTTAATGT,1.06 ± 0.17
22,TTGTTAGAA,1.0004 ± 0.001
23,TTGTTAGAAA,1.002 ± 0.0058
24,TTGTTAGATC,0.984 ± 0.036
25,TTGTTAGGCC,0.995 ± 0.021
26,TTGTTAGTTT,0.983 ± 0.032

row,Sequence,switch fluorescence ratio
1,TTGTTATACG,1.09 ± 0.079
2,TTGTTATGTA,0.982 ± 0.026
3,TTGTTATGTT,0.971 ± 0.03
4,TTGTTATTGG,0.978 ± 0.038
5,TTGTTCAAAA,1.03 ± 0.025
6,TTGTTCCATA,1 ± 0.033
7,TTGTTGAAGG,0.998 ± 0.038
8,TTGTTGAAGT,0.9966 ± 0.0072
9,TTGTTGATTT,1.02 ± 0.034
10,TTGTTGGGAA,0.998 ± 0.032
11,TTGTTGGGGG,0.994 ± 0.027
12,TTGTTGGTAC,1.15 ± 0.23
13,TTGTTGGTCC,1.16 ± 0.25
14,TTGTTGGTGA,0.971 ± 0.033
15,TTGTTGGTGC,1.09 ± 0.014
16,TTGTTGGTTA,0.9925 ± 0.0028
17,TTGTTGGTTT,1.02 ± 0.05
18,TTGTTGTAGC,1.02 ± 0.015
19,TTGTTGTATG,1.02 ± 0.014
20,TTGTTGTCGG,0.956 ± 0.013
21,TTGTTGTTAC,0.9998 ± 0.0074
22,TTGTTTAACT,1.02 ± 0.026
23,TTGTTTAGGG,0.999 ± 0.049
24,TTGTTTCCCG,1.013 ± 0.0086
25,TTGTTTGGCC,1.05 ± 0.079
26,TTGTTTGGCT,1.01 ± 0.015

row,Sequence,switch fluorescence ratio
1,TTGTTTGGTG,0.932 ± 0.014
2,TTGTTTTAAT,0.999 ± 0.02
3,TTGTTTTACA,0.9843 ± 0.0096
4,TTGTTTTGAT,0.984 ± 0.035
5,TTGTTTTGCA,0.971 ± 0.018
6,TTGTTTTTTC,0.986 ± 0.026
7,TTTAAAAAGC,0.996 ± 0.032
8,TTTAAAAAGT,1 ± 0.023
9,TTTAAAAATA,0.9966 ± 0.0049
10,TTTAAAACGC,1.01 ± 0.099
11,TTTAAAATTC,1.28 ± 0.49
12,TTTAAACGTA,0.983 ± 0.033
13,TTTAAAGTGT,0.997 ± 0.029
14,TTTAAATCTT,1.06 ± 0.022
15,TTTAAATGCG,0.985 ± 0.041
16,TTTAAATGGT,1 ± 0.027
17,TTTAACCGTC,1.06 ± 0.052
18,TTTAACGAAT,1.09 ± 0.099
19,TTTAACGTTT,0.979 ± 0.0061
20,TTTAACTCTG,1 ± 0.011
21,TTTAAGACAA,0.9892 ± 0.0025
22,TTTAAGCCGG,1.01 ± 0.032
23,TTTAAGGGA,0.9897 ± 0.0045
24,TTTAAGGGCC,0.978 ± 0.036
25,TTTAAGGTGA,1.04 ± 0.053
26,TTTAAGGTTA,0.999 ± 0.025

row,Sequence,switch fluorescence ratio
1,TTTAAGTCAG,1.018 ± 0.0088
2,TTTAAGTTTG,0.989 ± 0.029
3,TTTAATAAAA,0.988 ± 0.013
4,TTTAATAAGT,0.9981 ± 0.0036
5,TTTAATACGA,1.04 ± 0.042
6,TTTAATACGG,1.04 ± 0.011
7,TTTAATAGTT,1.03 ± 0.022
8,TTTAATATCT,0.998 ± 0.015
9,TTTAATATGC,1.14 ± 0.23
10,TTTAATATGT,0.968 ± 0.024
11,TTTAATCAAG,0.951 ± 0.021
12,TTTAATCACC,1.02 ± 0.02
13,TTTAATCTG,0.962 ± 0.021
14,TTTAATGCCG,0.954 ± 0.027
15,TTTAATGTAC,1.36 ± 0.32
16,TTTAATTATG,1.02 ± 0.034
17,TTTAATTGG,1 ± 0.048
18,TTTACAAGTA,1.031 ± 0.0049
19,TTTACACAGG,1.17 ± 0.035
20,TTTACAGGGT,1.03 ± 0.036
21,TTTACAGGTT,1.11 ± 0.1
22,TTTACATGCG,0.935 ± 0.031
23,TTTACATTGT,1.01 ± 0.03
